Consider one substance from patent publication US20040037830A1.

The target of the assay is IL-8 receptors on human neutrophils. Nature of the assay: 125I-IL-8 competition with unlabelled IL-8, Scatchard analysis, human neutrophils.

Regarding “human 72 amino acid IL-8 (interleukin-8), recombinant, made in E. coli (from UniProt P10145 28-99) (ligand)”, the binding sites/cell (binding sites/cell) was 31000.
